US20040053278A1 (JAPANESE FOUNDATION FOR CANCER RESEARCH, published 2004)

T1: wild type (wt) HA-tagged TβR-I (UniProt P36897 34-503, limits assumed)
T1 construct: whole, on cells; also called wild type TβR-I; TGF-β type I receptor
T1 sequence (looked up): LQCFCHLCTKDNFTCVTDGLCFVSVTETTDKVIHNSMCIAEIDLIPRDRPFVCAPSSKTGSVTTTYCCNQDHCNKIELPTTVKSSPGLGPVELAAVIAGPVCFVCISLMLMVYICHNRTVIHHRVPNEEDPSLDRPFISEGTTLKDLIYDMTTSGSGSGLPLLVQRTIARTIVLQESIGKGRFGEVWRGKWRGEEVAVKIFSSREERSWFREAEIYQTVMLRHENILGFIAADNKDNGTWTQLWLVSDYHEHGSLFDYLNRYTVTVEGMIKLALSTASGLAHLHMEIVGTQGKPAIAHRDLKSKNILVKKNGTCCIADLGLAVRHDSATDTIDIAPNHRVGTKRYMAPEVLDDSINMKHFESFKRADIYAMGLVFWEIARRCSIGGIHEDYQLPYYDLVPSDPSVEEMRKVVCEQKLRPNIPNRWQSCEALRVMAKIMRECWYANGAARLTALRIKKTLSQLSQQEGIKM

T2: Smad6 (epitope-tagged, heteromerization experiment of Example 4) (mouse, UniProt O35182 1-495)
T2 construct: Whole coding region of mouse Smad6, expressed inside COS-7 cells
T2 sequence: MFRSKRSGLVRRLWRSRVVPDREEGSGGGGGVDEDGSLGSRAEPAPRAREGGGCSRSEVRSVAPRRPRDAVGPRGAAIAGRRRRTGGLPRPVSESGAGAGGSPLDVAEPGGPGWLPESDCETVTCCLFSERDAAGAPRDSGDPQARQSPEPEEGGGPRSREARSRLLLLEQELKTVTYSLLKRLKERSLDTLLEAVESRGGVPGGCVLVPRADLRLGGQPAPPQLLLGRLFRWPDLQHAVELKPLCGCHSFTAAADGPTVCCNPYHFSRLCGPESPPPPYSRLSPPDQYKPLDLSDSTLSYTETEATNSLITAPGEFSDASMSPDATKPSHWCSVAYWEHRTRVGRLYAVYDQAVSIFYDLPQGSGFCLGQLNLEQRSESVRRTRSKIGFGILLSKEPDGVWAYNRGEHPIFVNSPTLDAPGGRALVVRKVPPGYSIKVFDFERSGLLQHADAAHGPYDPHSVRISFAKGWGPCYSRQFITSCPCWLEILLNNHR


Tests used:
[1] = target: T1, wild type (wt) HA-tagged TβR-I; assay: affinity cross-linking with 125I-TGF-β1, anti-FLAG immunoprecipitation from COS-7 lysates, SDS-PAGE and autoradiography
From the text: The interaction of Smad6 with the type I receptors was examined in affinity cross-linking assays. COS-7 cells were transfected with FLAG-tagged Smad6 (F-Smad6) or FLAG-tagged Smad2 (F-Smad2) in combination with the wild type (wt) or kinase-defective (KR) HA-tagged TβR-I and hexahistidine-tagged TβR-II. Cells were affinity labeled with ¹²⁵I-TGF-β1 and lysates were immunoprecipitated with anti-HA antibody or anti-FLAG M2 antibody. Immune complexes were subjected to SDS-PAGE and autoradiography. Smad6 bound to both wild type and kinase-defective TβR-I depending on the kinase activity of TβR-II. […] Similarly to Smad2, the binding of Smad6 to TβR-I required the kinase activity of TβR-II (FIG. 2a). Smad6, however, stably bound to the wild type TβR-I.

[2] = target: T2, Smad6 (epitope-tagged, heteromerization …); assay: co-immunoprecipitation and Western blot from transfected COS-7 cells
From the text: COS-7 cells were transiently transfected using DMRIE-C (Gibco/BRL, Gaithersburg, Md.). [³²P]orthophosphate- or [³⁵]methionine/cysteine-labeling and immunoprecipitation were done as described by Nakao et al. (J. Biol. Chem. 272:2896-2900, 1997). For Western blot of the immunoprecipitated proteins, tagged proteins were detected by chemiluminescence (ECL, Amersham, Arlington Heights, Ill.).
Smad2 heteromerizes with Smad4 upon phosphorylation by TβR-I (Lagna et al., 1996). It was recently shown that TGF-β also induces association of Smad2 and Smad3 (Nakao et al., EMBO. J. 16:5353-5362, 1997). The effect of Smad6 on the heteromerization of these Smads was examined (FIG. 4). COS-7 cells were transfected with the indicated combination of plasmids and subjected to immunoprecipitation followed by Western blot detection. Expression levels of Smad2 (bottom), Smad4 (middle), and Smad6 (middle) were monitored.

| binding result [1] | binding result [2] | Binder |
| --- | --- | --- |
| no binding | – | FLAG-tagged Smad2 (other, not shown: small tags and cut ends, Expressed inside COS-7 cells; also called F-Smad2) SSILPFTPPVVKRLLGWKKSAGGSGGAGGGEQNGQEEKWCQKAVKSLVKKLKKTGRLDELEKAITTQNCNTKCVTIPSTCSEIWGLSTANTVDQWDTTGLYSFSEQTRSLDGRLQVSHRKGLPHVIYCRLWRWPDLHSHHELKAIENCEYAFNLKKDEVCVNPYHYQRVETPVLPPVLVPRHTEILTELPPLDDYTHSIPENTNFPAGIEPQSNYIPETPPPGYISEDGETSDQQLNQSMDTGSPAELSPTTLSPVNHSLDLQPVTYSEPAFWCSIAYYELNQRVGETFHASQPSLTVDGFTDPSNSERFCLGLLSNVNRNATVEMTRRHIGRGVRLYYIGGEVFAECLSDSAIFVQSPNCNQRYGWHPATVCKIPPGCNLKIFNNQEFAALLAQSVNQGFEAVYQLTRMCTIRMSFVKGWGAEYRRQTVTSTPCWIELHLNGPLQWLDKVLTQMGSPSVRCSSMS |
| – | no binding | Smad2 (epitope-tagged, heteromerization experiment of Example 4) (other, not shown: small tags and cut ends) SSILPFTPPVVKRLLGWKKSAGGSGGAGGGEQNGQEEKWCQKAVKSLVKKLKKTGRLDELEKAITTQNCNTKCVTIPSTCSEIWGLSTANTVDQWDTTGLYSFSEQTRSLDGRLQVSHRKGLPHVIYCRLWRWPDLHSHHELKAIENCEYAFNLKKDEVCVNPYHYQRVETPVLPPVLVPRHTEILTELPPLDDYTHSIPENTNFPAGIEPQSNYIPETPPPGYISEDGETSDQQLNQSMDTGSPAELSPTTLSPVNHSLDLQPVTYSEPAFWCSIAYYELNQRVGETFHASQPSLTVDGFTDPSNSERFCLGLLSNVNRNATVEMTRRHIGRGVRLYYIGGEVFAECLSDSAIFVQSPNCNQRYGWHPATVCKIPPGCNLKIFNNQEFAALLAQSVNQGFEAVYQLTRMCTIRMSFVKGWGAEYRRQTVTSTPCWIELHLNGPLQWLDKVLTQMGSPSVRCSSMS |
